3 molecules from patent US20170362323A1 (Kyowa Kirin, published 2017) can be followed below.

B1: anti-CD20 IgG1 defucosylated antibody GA101/IgG1 DF (antibody, V domains shown)
VH: QVQLVQSGAEVKKPGSSVKVSCKASGYAFSYSWMNWVRQAPGQGLEWMGRIFPGDGDTDYNGKFKGRVTITADKSTSTAYMELSSLRSEDTAVYYCARNVFDGYWLVYWGQGTLVTVSS
VL: DIVMTQTPLSLPVTPGEPASISCRSSKSLLHSNGITYLYWYLQKPGQSPQLLIYQMSNLVSGVPDRFSGSGSGTDFTLKISRVEAEDVGVYYCAQNLELPYTFGGGTKVEIK
B2: anti-CD20 IgG1 type monovalent antibody GA101/mvG1-2 F (antibody, V domains shown)
VH: B1 VH
VL: DIVMTQTPLSLPVTPGEPASISCRSSKSLLHSNGITYLYWYLQKPGQSPQLLIYQMSNLVSGVPDRFSGSGSGTDFTLKISRVEAEDVGVYYCAQNLELPYTFGGGTKVEIKR
notes: Heterodimer of VH-CH and VL-CL-Fc
B3: anti-CD20 IgG1 type defucosylated monovalent antibody GA101/mvG1-2 DF (antibody, V domains shown)
VH: B1 VH
VL: B2 VL
notes: Same chains as GA101/mvG1-2 F, made in CHO/FUT8KO (no core fucose)

For this test, the target named is T1, CD20 on CD20-positive human lymphoma cell lines Raji and ST-486 (human, UniProt P11836 1-297).
T1 construct: whole, on cells
T1 sequence (looked up): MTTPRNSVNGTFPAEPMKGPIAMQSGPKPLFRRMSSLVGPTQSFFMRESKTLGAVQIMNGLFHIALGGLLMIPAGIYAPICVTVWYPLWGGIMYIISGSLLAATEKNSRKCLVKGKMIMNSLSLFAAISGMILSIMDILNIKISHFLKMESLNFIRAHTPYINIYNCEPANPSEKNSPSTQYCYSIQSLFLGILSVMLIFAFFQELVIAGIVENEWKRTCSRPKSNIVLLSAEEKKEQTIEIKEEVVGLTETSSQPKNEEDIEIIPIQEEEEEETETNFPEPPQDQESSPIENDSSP
The test can be described thus: flow cytometry competition on Raji cells, competitor GA101_Alx. (In general: A flow cytometer gives signals particle by particle.)
Excerpt: CD20-positive human lymphoma cell line Raji (JCRB9012) and HER2-positive human breast cancer cell line SK-BR-3 (ATCC: HTB-30) were used to perform flow cytometry.
Further, hIgG1_Alx was used as a negative control. After washing with FACS buffer, a flow cytometer Cytomics FC 500 MPL (Beckman Coulter) was used for measurement.
Turning to B1, the binding result is reported as “binds”.

Take B2: the binding result is listed as “binds”.

With B3, the binding result was “binds”.
